Reference: patent JP2023550785A (dated 2023)

How the values were obtained:
[1] = target: SARS-CoV (Urbani strain) prefusion-stabilized spike (S) protein / S ectodomain trimer (SARS-CoV (Urbani strain), UniProt P59594 14-1195); assay: SPR (Biacore T200), S ectodomain trimer captured, Fab as analyte
[2] = target: T1, MERS-CoV (London1/2012) prefusion-stabilized spike (S) protein / S ectodomain trimer (MERS-CoV (London1/2012), UniProt K9N5Q8 18-1296)
T1 sequence: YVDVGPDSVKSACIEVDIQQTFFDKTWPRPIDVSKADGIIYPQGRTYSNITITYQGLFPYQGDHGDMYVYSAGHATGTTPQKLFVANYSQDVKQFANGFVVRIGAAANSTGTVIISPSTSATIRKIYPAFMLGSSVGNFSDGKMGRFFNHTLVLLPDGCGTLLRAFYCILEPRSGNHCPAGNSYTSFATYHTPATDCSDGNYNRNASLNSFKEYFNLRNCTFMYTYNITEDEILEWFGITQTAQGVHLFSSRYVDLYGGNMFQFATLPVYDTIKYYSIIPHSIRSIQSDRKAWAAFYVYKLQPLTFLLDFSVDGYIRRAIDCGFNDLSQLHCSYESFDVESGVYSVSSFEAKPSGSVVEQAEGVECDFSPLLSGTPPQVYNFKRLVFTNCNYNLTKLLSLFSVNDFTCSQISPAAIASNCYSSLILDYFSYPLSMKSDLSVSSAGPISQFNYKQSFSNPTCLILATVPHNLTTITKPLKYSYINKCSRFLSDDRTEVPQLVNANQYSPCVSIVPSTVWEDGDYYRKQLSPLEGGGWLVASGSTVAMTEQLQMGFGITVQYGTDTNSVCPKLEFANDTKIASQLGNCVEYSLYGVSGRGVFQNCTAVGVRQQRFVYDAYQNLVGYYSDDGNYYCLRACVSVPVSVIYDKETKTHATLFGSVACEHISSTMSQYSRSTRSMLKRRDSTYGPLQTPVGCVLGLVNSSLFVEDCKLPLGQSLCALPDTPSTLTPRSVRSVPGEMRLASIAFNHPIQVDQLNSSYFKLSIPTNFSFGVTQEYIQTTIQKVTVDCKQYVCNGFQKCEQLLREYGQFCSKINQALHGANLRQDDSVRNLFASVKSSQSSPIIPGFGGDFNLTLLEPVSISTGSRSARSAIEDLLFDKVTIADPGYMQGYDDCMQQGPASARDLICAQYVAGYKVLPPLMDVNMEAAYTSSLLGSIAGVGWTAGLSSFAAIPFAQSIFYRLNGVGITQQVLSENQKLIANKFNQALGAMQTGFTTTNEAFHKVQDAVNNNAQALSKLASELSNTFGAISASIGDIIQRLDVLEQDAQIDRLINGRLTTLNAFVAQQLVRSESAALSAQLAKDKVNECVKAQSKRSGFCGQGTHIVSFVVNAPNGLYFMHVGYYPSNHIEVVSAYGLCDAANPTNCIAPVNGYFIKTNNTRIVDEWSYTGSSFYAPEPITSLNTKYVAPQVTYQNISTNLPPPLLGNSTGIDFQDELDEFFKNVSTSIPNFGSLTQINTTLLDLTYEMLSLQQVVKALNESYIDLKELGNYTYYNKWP

[3] = target: T2, HCoV-HKU1 prefusion-stabilized spike (S) protein / S ectodomain trimer (human coronavirus HKU1, UniProt Q5MQD0 13-1300)
T2 sequence: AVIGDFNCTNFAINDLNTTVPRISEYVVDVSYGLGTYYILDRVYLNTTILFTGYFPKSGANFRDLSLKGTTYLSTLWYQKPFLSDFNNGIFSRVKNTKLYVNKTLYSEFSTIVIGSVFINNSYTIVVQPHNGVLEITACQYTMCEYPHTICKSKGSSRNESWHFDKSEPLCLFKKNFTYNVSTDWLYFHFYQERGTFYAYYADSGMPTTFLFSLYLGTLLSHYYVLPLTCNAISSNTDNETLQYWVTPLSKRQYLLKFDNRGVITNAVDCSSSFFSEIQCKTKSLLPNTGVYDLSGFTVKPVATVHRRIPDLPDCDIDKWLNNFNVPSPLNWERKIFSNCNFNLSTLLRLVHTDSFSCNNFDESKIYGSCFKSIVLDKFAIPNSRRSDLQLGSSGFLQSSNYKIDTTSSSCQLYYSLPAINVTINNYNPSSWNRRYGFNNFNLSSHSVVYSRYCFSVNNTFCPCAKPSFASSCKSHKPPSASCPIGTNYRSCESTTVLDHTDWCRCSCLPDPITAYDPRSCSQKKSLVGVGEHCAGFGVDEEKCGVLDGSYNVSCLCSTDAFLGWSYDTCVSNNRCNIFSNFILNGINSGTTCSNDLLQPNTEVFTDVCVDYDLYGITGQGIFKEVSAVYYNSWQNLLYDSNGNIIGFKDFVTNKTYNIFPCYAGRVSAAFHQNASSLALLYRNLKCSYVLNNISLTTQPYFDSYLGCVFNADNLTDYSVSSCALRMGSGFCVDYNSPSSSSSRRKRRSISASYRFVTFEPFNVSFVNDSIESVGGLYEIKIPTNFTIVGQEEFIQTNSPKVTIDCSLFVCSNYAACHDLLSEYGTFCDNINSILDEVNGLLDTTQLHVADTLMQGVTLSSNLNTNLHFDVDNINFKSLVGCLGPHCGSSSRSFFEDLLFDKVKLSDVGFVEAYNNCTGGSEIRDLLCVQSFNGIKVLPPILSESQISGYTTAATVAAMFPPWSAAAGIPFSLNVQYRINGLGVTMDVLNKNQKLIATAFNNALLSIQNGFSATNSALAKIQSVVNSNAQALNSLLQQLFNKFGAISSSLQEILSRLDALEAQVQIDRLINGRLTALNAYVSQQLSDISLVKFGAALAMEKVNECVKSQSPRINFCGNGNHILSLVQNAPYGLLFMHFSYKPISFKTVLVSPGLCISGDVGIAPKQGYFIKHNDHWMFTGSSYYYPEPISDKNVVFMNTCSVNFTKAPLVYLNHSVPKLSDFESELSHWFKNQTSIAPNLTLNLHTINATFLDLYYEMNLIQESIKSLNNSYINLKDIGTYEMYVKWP

B1: S2P6 Fab fragment (Fab, V domains shown)
VH: EVQLVQSGAEVKKPGASVKVSCKASGYTFTSQYMHWVRQAPGQGLEWIGIINPSGVHTSYAQKFQGRVTLTRDTSTSTLYMELSSLRSEDTAVYYCARGSPKGAFDYWGQGTLVTVSS
VL: not shown
Kd [1]: 7 nM | Kd [2]: 12 nM | Kd [3]: ~120 nM
